# Assay results: the supplement of paper PMC12764529
# ± gives the half width of the 95% confidence interval.
# What was measured:
# [1] = folding stability dG unfold from trypsin proteolysis; higher = more stable
# Method in brief: (§1)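 K50 was inferred by Bayesian fitting of sequencing counts obtained after protease digestion of designed mini-proteins. Unfolding free energy was derived by comparison with a sequence-predicted unfolded-state K50 and a shared folded-state K50, for each protease or both combined. The mini-proteins were under 80 residues, had no cysteine, were carried in a PA-tagged cDNA display construct, and were kept only if AlphaFold2 dimer inter-PAE exceeded 15.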
# [2] = folding stability dG unfold from chymotrypsin proteolysis; higher = more stable
# Method in brief: as §1
# [3] = folding stability dG unfold (combined trypsin and chymotrypsin); higher = more stable
# Method in brief: as §1
Sequence,folding stability dG unfold [1] [kJ/mol],folding stability dG unfold [2] [kJ/mol],folding stability dG unfold [3] [kJ/mol]
SAGGSAGGSAGKKIPKKIIPKINLKVELVKSKIYYDKKKKKIVKIEYEFKITYPNGFKATSAGGSAGGSAGG [r11_890_TrMRF],6.04 ± 0.222,8.26 ± 0.46,7.67 ± 0.837
SAGGSAGGSAGKKKIKLLIFDKKTNKLYVVEVELTKDGKIKITKIKEIYEVKPGEKLKLLSAGGSAGGSAGG [r11_750_TrROS_Hall],4.1 ± 0.184,5.46 ± 1.09,4.99 ± 1.05
SAGGSAGGSAGKKKKKKKKKPPVTLTVEIEIEINGKKYIAKKKVKLNKDGKLEVEVEIYPSAGGSAGGSAGG [r11_555_TrROS_Hall],10 ± 1.55,13.5 ± 0.272,13.1 ± 1.72
SAGGSAGGSAGKKKKKPKKKYVFIVIKINLSEEELKKLAEELGIDKVFKNENGYAVLVVKSAGGSAGGSAGG [r11_64_TrROS_Hall],9.18 ± 0.502,14.9 ± 0.247,13.2 ± 0.544
SAGGSAGGSAGKKKTITIKIPGMSKEEIAKLIKEKFGPNVKITEIKENKDNLLEITVEVESAGGSAGGSAGG [r11_580_TrROS_Hall],11.7 ± 0.92,11.7 ± 0.795,12.5 ± 1
SAGGSAGGSAGKKKVKLVEFDEETGYALLEVEDEETGETKLVLVPMTAEELEALPNIEVLSAGGSAGGSAGG [r17_46_TrROS_Hall],8.95 ± 1,7.99 ± 0.331,8.68 ± 1
SAGGSAGGSAGKKKVLMTVDEIEKKLGKKIKPGSLVLVEVENGKVKKIEIFDVKKKPKKKSAGGSAGGSAGG [r11_616_TrROS_Hall],3.95 ± 0.377,4.48 ± 0.318,4.2 ± 0.879
SAGGSAGGSAGKKKYKIVSIEIERNKDGNSLTVKIKLENGKELTLTFPTEEDLKNLKIKASAGGSAGGSAGG [r11_711_TrROS_Hall],6.67 ± 0.418,12.99 ± 0.117,11.6 ± 0.314
SAGGSAGGSAGKKPIKEVTITLPPGAKIVKIEIEKTEDGKYILKITVEVDGKLYEFTFELSAGGSAGGSAGG [r11_1013_TrROS_Hall],13.1 ± 1.05,17.9 ± 0.586,16.6 ± 1.21
SAGGSAGGSAGKKTYKLVIPVKPDKTVEEIAEEVKKLLGPGSKVEVEEKEDGFATVYVESSAGGSAGGSAGG [r17_20_TrMRF],1.22 ± 0.167,2.74 ± 0.389,2.32 ± 0.406
SAGGSAGGSAGKKYKVVEVKENKDGTVELVVENENGEKKKITLSKEELDKLKAGDTVELKSAGGSAGGSAGG [r11_943_TrROS_Hall],8.42 ± 0.46,11.3 ± 0.238,10.3 ± 0.586
SAGGSAGGSAGKLRYRYRFDTVLLEVTYDPSTGEVVEVKVIPLSPLPPLTPEELYRLLEDSAGGSAGGSAGG [r11_320_TrMRF],9.4 ± 0.222,12.85 ± 0.0753,11.8 ± 0.234
SAGGSAGGSAGKMYKLTIEKDGKEIEIIVSEDELKEIAKKLGLPPNAKIKVEKVSPEELKSAGGSAGGSAGG [r17_395_TrROS_Hall],9.24 ± 0.397,15.9 ± 0.586,13.7 ± 0.711
SAGGSAGGSAGKPIIKVKIIEKKDGYLKIEIEDEKTGETKTITLKPGQKLEIKLELVKEPSAGGSAGGSAGG [r11_738_TrROS_Hall],8.01 ± 0.628,5.55 ± 0.268,6.78 ± 0.46
SAGGSAGGSAGKPITADEVAERVARRLRELFGPDYDINVKVVKVLPGDYVLVDVEITGDLSAGGSAGGSAGG [r11_153_TrMRF],9.49 ± 0.134,9.568 ± 0.0879,9.55 ± 0.184
SAGGSAGGSAGKPTLKLVLKFDSPEQAKAAAEALAKAGYKVKVELKEYPDGLYLVVTVEPSAGGSAGGSAGG [r11_677_TrROS_Hall],13.8 ± 0.502,18.4 ± 0.544,17.6 ± 0.837
SAGGSAGGSAGKTIVLKTPEAIKNLKEGDVIKLKDGKKYKIVKVEYDKETNYFTIEIEKESAGGSAGGSAGG [r11_316_TrROS_Hall],12.4 ± 0.544,15.7 ± 0.711,14.8 ± 0.711
SAGGSAGGSAGKTVQIWIPPDEITPEALKSLAREGWKIKPIEIRRNPEDGWISITIELKPSAGGSAGGSAGG [r11_345_TrROS],2.5 ± 0.318,1.89 ± 1.51,2.59 ± 1.05
SAGGSAGGSAGKVIKLEELKKKFPNMSPEELAAFFKKLGYKVEVVKVGDVPYVFLSPGEKSAGGSAGGSAGG [r11_707_TrMRF],9.21 ± 0.272,15.38 ± 0.0837,13.9 ± 0.205
SAGGSAGGSAGKVTLTIPFTNEDGTKYIAEFTFDELEVEEDVEIKIVSLGENFDLVLKPESAGGSAGGSAGG [r11_733_TrMRF],6.15 ± 0.289,6.98 ± 0.172,6.82 ± 0.418
